# Laboratory results reported in PMC11139282, “Structure and activity of the septal peptidoglycan hydrolysis machinery crucial for bacterial cell division” (PLOS Biology, 2024).
# B1: FtsX(His&Myc) [E. coli K-12] / FtsE(Flag) [E. coli K-12] (parent)
# chain 1: MIRFEHVSKAYLGGRQALQGVTFHMQPGEMAFLTGHSGAGKSTLLKLICGIERPSAGKIWFSGHDITRLKNREVPFLRRQIGMIFQDHHLLMDRTVYDNVAIPLIIAGASGDDIRRRVSAALDKVGLLDKAKNFPIQLSGGEQQRVGIARAVVNKPAVLLADEPTGNLDDALSEGILRLFEEFNRVGVTVLMATHDINLISRRSYRMLTLSDGHLHGGVGHE
# chain 2: MNKRDAINHIRQFGGRLDRFRKSVGGSGDGGRNAPKRAKSSPKPVNRKTNVFNEQVRYAFHGALQDLKSKPFATFLTVMVIAISLTLPSVCYMVYKNVNQAATQYYPSPQITVYLQKTLDDDAAAGVVAQLQAEQGVEKVNYLSREDALGEFRNWSGFGGALDMLEENPLPAVAVVIPKLDFQGTESLNTLRDRITQINGIDEVRMDDSWFARLAALTGLVGRVSAMIGVLMVAAVFLVIGNSVRLSIFARRDSINVQKLIGATDGFILRPFLYGGALLGFSGALLSLILSEILVLRLSSAVAEVAQVFGTKFDINGLSFDECLLLLLVCSMIGWVAAWLATVQHLRHFTPE
# Variants of: B1
# Assay: western blot of membrane fraction, quantified (FtsE retained on membrane with FtsX)
# Conditions: with FtsE(Flag) [E. coli K-12]; parent: 1.3; read off a plot
row,Variant,response (OmpC adjusted)
1,chain 2 V257P,0.38
2,chain 2 F267A,0.5
3,chain 2 T264K,0.51
4,chain 2 I261D,0.11
